Source: US20060147453A1

Biological target: decorin
Assay: cell-based or functional assay

Substance “Full length human WISP-1-Fc fusion protein (baculovirus, Sf9 insect cells) (from UniProt O95388 23-367)” has an HAS2 expression in NRK cells plated on the coated surface (real time RT-PCR) of 3 fold.
